Molecular target: nuclear transport factor 2 (NUTF2) (human (endogenous in MCF-7)) (UniProt P61970)
Test: native MS; native top-down proteomics: whole cell lysates of MCF-7 and MCF-7-EGFR (EGFR-overexpressing) cells fractionated by native SEC, concentrated with molecular weight cutoff filters, direct ESI infusion FAIMS-MSn with HCD, Orbitrap detection; endogenous assemblies

Sequence of nuclear transport factor 2 (NUTF2) (P61970 whole entry): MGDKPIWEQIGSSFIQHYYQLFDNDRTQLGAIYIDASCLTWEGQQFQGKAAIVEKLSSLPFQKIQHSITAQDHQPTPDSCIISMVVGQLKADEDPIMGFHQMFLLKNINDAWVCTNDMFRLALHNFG

stoichiometry N: 2
Substance: nuclear transport factor 2 (NUTF2) (from UniProt P61970 1-127) (natural protein; monomeric proteoforms include acetylated, methylated and dimethylated forms (sites K4, K55, K63); monomeric proteoforms include acetylated, methylated and dimethylated forms (sites K4, K55, K63); other documents disagree on this pair)
